Test results: paper PMC3071809, “Recombinant Complement Receptor 2 Radiolabeled with [^99mTc(CO)3]^+ : A Potential New Radiopharmaceutical for Imaging Activated Complement” (PLoS ONE, 2011)

Assays:
[1] = molecular target: C3d construct with a free exposed thiol (Cys17, corresponding to Cys1010 of full length C3) (human); experiment: SPR; Biacore T100, 25°C; C3d immobilised on a CM5 chip by thiol coupling of the free Cys17; rCR2 as analyte; 0.01 M HEPES pH 7.4, 0.15 M NaCl, 3 mM EDTA, 0.005% Tween 20; equilibrium analysis, Langmuir isotherm
[2] = molecular target: T1, human C3d protein (Merck) (human, UniProt P01024 1002-1303); experiment: ELISA; C3d coated at two fold concentrations from 1.5 to 1500 nM/well in PBS pH 7.4; rCR2 or C2A at a fixed 1.5 µM in 0.05% BSA-PBS pH 7.4, 1 h, room temperature; detected with anti-His antibody; conditions: both partners purified
T1 construct: C3d fragment of complement C3, human; also called C3d antigen; immobilized C3d; source: bought: Merck, Darmstadt, Germany
T1 sequence (P01024 1002-1303): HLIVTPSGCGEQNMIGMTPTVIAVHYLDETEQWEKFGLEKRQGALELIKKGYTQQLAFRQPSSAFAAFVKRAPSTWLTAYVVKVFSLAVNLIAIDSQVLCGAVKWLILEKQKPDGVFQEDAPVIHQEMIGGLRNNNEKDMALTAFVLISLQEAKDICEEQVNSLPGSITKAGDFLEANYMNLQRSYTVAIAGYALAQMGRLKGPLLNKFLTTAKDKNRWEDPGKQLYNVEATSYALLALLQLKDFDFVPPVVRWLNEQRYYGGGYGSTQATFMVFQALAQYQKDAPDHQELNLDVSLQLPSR

[3] = molecular target: T1, human C3d protein (Merck); experiment: radioligand binding; radioactive ELISA: C3d coated on 12 well strips at increasing two fold concentrations, ^99mTc-rCR2 added, wells gamma counted; one site specific binding model Y = Bmax*X/(Kd+X); conditions: both partners purified

| Binder | Kd [1] | stoichiometry N [1] | EC50 [2] | Kd [3] |
| --- | --- | --- | --- | --- |
| recombinant Complement Receptor 2 (rCR2), Short Consensus Repeats 1 and 2 of human CR2 with the C-terminal sequence … (domain or fragment, UniProt P20023 21-154, looked up, complement receptor type 2 (CR2, CD21), human, residues 21-154: SCR1, SCR2 and the SCR2 to SCR3 linker VFPLEC; 15.5 kDa; cloned in pET-24a (NdeI/EcoRI); also called recombinant CR2; SCR1/2 fragment; not shown: His6, C-terminal, kept) ISCGSPPPILNGRISYYSTPIAVGTVIRYSCSGTFRLIGEKSLLCITKDKVDGTWDKPAPKCEYFNKYSSCPEPIVPGGYKIRGSTPYRHGDSVTFACKTNFSMNGNKSVWCQANNMWGPTRLPTCVSVFPLEC | 570 nM | 1 | ~48.5 nM |  |
| ^99mTc-rCR2 (rCR2 radiolabeled with [^99mTc(CO)3]^+ on the His-tag) (domain or fragment, human, UniProt P20023 21-154, looked up, [^99mTc(CO)3]^+ on the C-terminal His-tag, complement receptor type 2 (CR2), human, residues 21-154, as m1; m1 with the radiolabel; also called rCR2-Tc^99m; rCR2-[^99mTc(CO)3]; source: labeled with [^99mTc(CO)3(OH2)3]^+ at 37°C; not shown: His6, C-terminal, kept) ISCGSPPPILNGRISYYSTPIAVGTVIRYSCSGTFRLIGEKSLLCITKDKVDGTWDKPAPKCEYFNKYSSCPEPIVPGGYKIRGSTPYRHGDSVTFACKTNFSMNGNKSVWCQANNMWGPTRLPTCVSVFPLEC |  |  |  | 25.5 nM |
